Test results published in patent US20100166775A1 (ACTIVE BIOTECH, published 2010).

B10: recombinant human S100A9 (ligand)
chain: MTCKMSQLERNIETIINTFHQYSVKLGHPDTLNQGEFKELVRKDLQNFLKKENKNEKVIEHIMEDLDTNADKQLSFEEFIMLMARLTWASHEKMHEGDEGPGHHHKPGLGEGTP
notes: Concentrations are based on the homodimeric molecular weight; Assays were run with Ca2+ and Zn2+; also called hS100A9; rhS100A9

Assays:
[1] = molecular target: T1, recombinant human RAGE/Fc chimera (R&D Systems cat. No. 1145-RG) (human, UniProt Q15109 23-344); assay: SPR (Biacore), 200 nM protein over amine-coupled RAGE/Fc, 1 mM CaCl2 and 10 µM ZnCl2; Req or response at late association, not corrected for mass
T1 construct: Disulfide-linked homodimer expressed in NS0 cells, glycosylated and amine-coupled to a CM5 chip; also called rhRAGE-Fc; immobilized RAGE; not shown: peptide linker between RAGE and Fc; Fc region of human IgG1
T1 sequence (Q15109 23-344, change not shown): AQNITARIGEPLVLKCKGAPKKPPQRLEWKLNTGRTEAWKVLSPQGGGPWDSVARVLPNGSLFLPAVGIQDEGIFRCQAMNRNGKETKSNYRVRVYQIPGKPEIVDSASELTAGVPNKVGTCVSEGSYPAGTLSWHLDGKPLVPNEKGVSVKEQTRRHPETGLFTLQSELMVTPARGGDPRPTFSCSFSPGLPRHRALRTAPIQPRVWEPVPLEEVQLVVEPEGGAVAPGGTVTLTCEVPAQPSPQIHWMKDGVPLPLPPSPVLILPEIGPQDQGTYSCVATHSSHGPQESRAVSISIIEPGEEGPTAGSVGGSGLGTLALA
Method: (§1) Binding analysis was performed using the “surface plasmon resonance” (SPR) technology with a Biacore 3000™ system. This technology allows analysis of an interaction between proteins and small molecules in a real-time and label-free manner. A protein or low-molecular weight compound is injected over a surface (a CM5 sensor chip) with a covalently coupled ligand and the signal produced, expressed as resonance units (RU), is directly proportional to the number and mass of the molecule interacting with the ligand on the surface. Immobilization, regeneration scouting, surface performance tests and binding studies were conducted basically according to the instructions by the manufacturer. Kinetic evaluation of binding data was carried using the BIAevaluation Software Version 3.2 (Biacore AB). Optimization of conditions for immobilization and binding analysis is carried out for each interaction to be studied.
(§2) Recombinant human RAGE was obtained from R&D Systems (cat. No. 1145-RG) as a fusion protein of the extracellular domain of RAGE, comprising a.a. 1-344, and the Fc region of human IgG₁ via a peptide linker. The chimeric protein was expressed in the mouse myleoma cell line NSO as a disulfide-linked homo-dimeric protein with a calculated molecular mass of 61 kDa. Prior to covalent coupling to the sensor chip, buffer was changed to a standard Biacore buffer (10 mM Hepes, 0.15 M NaCl, pH 7.4, containing 0.005% v/v Surfactant P20; HBS-P) using Fast Protein Desalting Micro-Spin Columns (Pierce). RAGE was diluted in an immobilization buffer shown to give sufficient pre-concentration and then covalently coupled using the “Aim at immobilization level” function in the Biacore Wizard to obtain various coupling densities. Activity of immobilized RAGE was tested by injecting a specific anti-human RAGE monoclonal antibody over the surface.

[2] = molecular target: T1, recombinant human RAGE/Fc chimera (R&D …); assay: SPR (Biacore), 200 nM protein over amine-coupled RAGE/Fc, 1 mM CaCl2 and 10 µM ZnCl2
Method: as §1, §2

[3] = molecular target: T1, recombinant human RAGE/Fc chimera (R&D …); assay: placeholder
recombinant human S100A9 [4] = molecular target: B10; assay: SPR competition: 100 nM S100A9 pre-incubated with 12.5-500 nM 43/8, injected over immobilized TLR4/MD-2; log-logit plot
Method: (§3) Binding data were transformed to a log-logit plot for calculation of IC₅₀ value.
The assay was performed by coating human TLR4/MD-2 complex on a CM5 chip at a density of ˜3000 RU using standard amine coupling.

recombinant human S100A9 [5] = molecular target: B10; assay: SPR competition: 100 nM S100A9 pre-incubated with 12.5-500 nM 43/8, injected over immobilized amino-linked Compound A (a small molecule); log-logit plot
Method: The assay was performed by coating amino-linked Compound A on a CM5 chip using standard amine coupling.

recombinant human S100A9 [6] = molecular target: B10; assay: SPR competition: 100 nM human S100A9 pre-incubated with 0-400 nM 43/8 or 1C10, injected over immobilized 43/8; reference 1C10
Method: Incubated samples were then injected for 3 min at a flow rate of 30 μl/min (1; association phase) followed by injection of sample buffer (2; dissociation phase). Responses were calculated at late association phase.

recombinant human S100A9 [7] = molecular target: B10; assay: SPR competition: 100 nM S100A9 pre-incubated with 12.5-500 nM 43/8, injected over immobilized RAGE-Fc; log-logit plot
Method: as §3
The assay was performed by coating human RAGE on a standard CM5 chip at high density (3000 RU) using standard amine coupling.

B1: murine S100A8/S100A9 complex (other)
chain 1: PSELEKALSNLIDVYHNYSNIQGNHHALYKNDFKKMVTTECPQFVQNINIENLFRELDINSDNAINFEEFLAMVIKVGVASHKDSHKE
chain 2: ANKAPSQMERSITTIIDTFHQYSRKEGHPDTLSKKEFRQMVEAQLATFMKKEKRNEALINDIMEDLDTNQDNQLSFEECMMLMAKLIFACHEKLHENNPRGHGHSHGKGCGK
notes: Heterodimer; also called murine S100A8/A9; murine complex S100A8/A9
binding result [1]: binds

B2: human S100A8/S100A9 complex (other)
chain 1: MLTELEKALNSIIDVYHKYSLIKGNFHAVYRDDLKKLLETECPQYIRKKGADVWFKELDINTDGAVNFQEFLILVIKMGVAAHKKSHEESHKE
chain 2: MTCKMSQLERNIETIINTFHQYSVKLGHPDTLNQGEFKELVRKDLQNFLKKENKNEKVIEHIMEDLDTNADKQLSFEEFIMLMARLTWASHEKMHEGDEGPGHHHKPGLGEGTP
notes: Heterodimer; also called S100A8/A9; S100A8/9
binding result [1]: binds

B3: human S100A12 (other, UniProt P80511 2-92, looked up)
chain: TKLEEHLEGIVNIFHQYSVRKGHFDTLSKGELKQLLTKELANTIKNIKDKAVIDEIFQGLDANQDEQVDFQEFISLVAIALKAAHYHTHKE
notes: also called S100Al2
binding result [1]: binds

B4: murine S100A9 (other, UniProt P31725 2-113, looked up)
chain: ANKAPSQMERSITTIIDTFHQYSRKEGHPDTLSKKEFRQMVEAQLATFMKKEKRNEALINDIMEDLDTNQDNQLSFEECMMLMAKLIFACHEKLHENNPRGHGHSHGKGCGK
notes: Concentration is based on the homodimeric molecular weight
binding result [2]: no binding (tested: 200 nM)

B5: S100A1 (other, human, UniProt P23297 1-94, looked up)
chain: MGSELETAMETLINVFHAHSGKEGDKYKLSKKELKELLQTELSGFLDAQKDVDAVDKVMKELDENGDGEVDFQEYVVLVAALTVACNNFFWENS
notes: also called recombinant human S100A1
binding result [2]: no binding (tested: 200 nM)

B6: S100B (other, human, UniProt P04271 1-92, looked up)
chain: MSELEKAMVALIDVFHQYSGREGDKHKLKKSELKELINNELSHFLEEIKEQEVVDKVMETLDNDGDGECDFQEFMAFVAMVTTACHEFFEHE
notes: also called S100β; recombinant human S100β
binding result [2]: no binding (tested: 200 nM)

B7: hS100A11 (other, human, UniProt P31949 1-105, looked up)
S100A11: MAKISSPTETERCIESLIAVFQKYAGKDGYNYTLSKTEFLSFMNTELAAFTKNQKDPGVLDRMMKKLDTNSDGQLDFSEFLNLIGGLAMACHDSFLKAVPSQKRT
notes: recombinant; also called recombinant human S100A11 (ProSpec TechnoGene)
binding result [2]: no binding (tested: 200 nM)

B8: human S100A8 (other, UniProt P05109 1-93, looked up)
chain: MLTELEKALNSIIDVYHKYSLIKGNFHAVYRDDLKKLLETECPQYIRKKGADVWFKELDINTDGAVNFQEFLILVIKMGVAAHKKSHEESHKE
notes: The source is 'produced recombinantly ... or obtained from elsewhere'
binding result [2]: no binding (tested: 200 nM)

B9: murine S100A8 (other, UniProt P27005 2-89, looked up)
chain: PSELEKALSNLIDVYHNYSNIQGNHHALYKNDFKKMVTTECPQFVQNINIENLFRELDINSDNAINFEEFLAMVIKVGVASHKDSHKE
notes: as for B4
binding result [2]: no binding (tested: 200 nM)

B10
fold higher binding than the next group of RAGE binders (AnxII, S100A12, S100A8/9) [3]: 10 fold

B11: anti-S100A9 monoclonal antibody 43/8 (antibody, V domains shown)
VH: PELVKSGASVKISCKASGYSFTDYNINWVKQSNGKSLEWIGLINPNYGTTFYNQKFKGKATLTVDQSSSTAYMQLNSLTSEDSAVYYCARETLLLRYFDYWGQGTTLTVSS
VL: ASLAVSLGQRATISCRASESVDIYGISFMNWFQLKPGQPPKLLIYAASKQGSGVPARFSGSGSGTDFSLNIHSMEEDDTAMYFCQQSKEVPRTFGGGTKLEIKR
notes: Mouse monoclonal from an S100A9-null C57BL/6 mouse; also called anti-S100A9 mAb 43/8; mAb 43/8
IC50 (recombinant human S100A9 [4]): 27 nM | IC50 (recombinant human S100A9 [5]): 120 nM | fold higher inhibition of S100A9 binding to immobilized 43/8 than for antibody 1C10 (recombinant human S100A9 [6]): > 10 fold | IC50 (recombinant human S100A9 [7]): 34 nM
